Experimental data from patent publication US20250136687A1 (SHANDONG SIMCERE BIOPHARMACEUTICAL, published 2025).
Numbering of substitutions follows the chain as printed. Like-named read-outs stand apart in the source and are kept apart here. Values belong to the binder of their own block, whether it stands above or below them.

Columns and labels:
[1] = molecular target: T1, human CD3 on the cell surface (Jurkat cells, expanded human T cells, Jurkat-Lucia NFAT cells, human PBMC) (human, UniProt P07766 23-207; P04234 22-171; P09693 23-182); assay: FACS, Jurkat cells
T1 construct: whole, on cells; Endogenous CD3 within the TCR-CD3 complex on cells (also zeta chains and TCR); the cell type is named under assay
T1 sequence (P07766 23-207, chain 1 of 3): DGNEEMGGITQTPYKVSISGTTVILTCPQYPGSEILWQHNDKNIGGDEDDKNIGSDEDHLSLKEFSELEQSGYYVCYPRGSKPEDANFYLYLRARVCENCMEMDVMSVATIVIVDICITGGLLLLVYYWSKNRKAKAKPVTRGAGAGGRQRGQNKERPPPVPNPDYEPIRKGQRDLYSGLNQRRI
T1 sequence (P04234 22-171, chain 2 of 3): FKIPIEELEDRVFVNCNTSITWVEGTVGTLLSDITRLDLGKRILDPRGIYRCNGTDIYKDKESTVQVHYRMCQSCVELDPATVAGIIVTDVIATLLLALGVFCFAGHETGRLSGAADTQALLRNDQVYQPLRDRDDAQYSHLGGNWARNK
T1 sequence (P09693 23-182, chain 3 of 3): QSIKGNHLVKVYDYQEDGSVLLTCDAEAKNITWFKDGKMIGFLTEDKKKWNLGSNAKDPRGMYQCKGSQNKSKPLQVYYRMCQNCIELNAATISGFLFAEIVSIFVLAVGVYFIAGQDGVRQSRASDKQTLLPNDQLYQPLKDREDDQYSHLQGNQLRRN
Description: (§1) The binding of the chimeric antibodies to CD3 on the cell surface was analyzed by detecting the binding of the antibodies to Jurkat cells and human T cells. Suspension cells Jurkat cells were scale-up cultured in T-75 cell culture flasks to the logarithmic growth phase, the supernatant of the medium was discarded by centrifugation, and the cell pellet was washed 2 times with PBS for later use. The expanded human T cells were washed 2 times with PBS for later use. After counting the cells in the previous step, the cell pellet was resuspended with [PBS+2% (w/w) BSA] blocking solution to 4×10⁶ cells/ml, and added to a 96-well FACS reaction plate at 50 μl/well, and then the chimeric antibody to be tested was added at 50 μl/well, and incubated at 4° C. for 1 h. The cells were centrifuged and washed 3 times with a PBS buffer. […] The cells were centrifuged and washed 5 times with PBS, and FACS (FACS Canto™, purchased from BD Company) was used for detection and result analysis. Data analysis was performed by software (CellQuest) to obtain the mean fluorescence […] (MFI) of the cells. And then software (GraphPad Prism8) was used for analysis, data fitting, and EC50 value calculation. The same method was used to simultaneously detect the binding of the chimeric antibodies to endogenous CD3 negative cells MOLT4 cells.

[2] = molecular target: T2, recombinant human CD3ε-ECD His protein (human, UniProt P07766 23-126); assay: SPR (Biacore), antibody captured on Protein A chip
T2 construct: extracellular domain; also called human CD3ε-His; CD3ε antigen protein; not shown: His tag
T2 sequence (P07766 23-126): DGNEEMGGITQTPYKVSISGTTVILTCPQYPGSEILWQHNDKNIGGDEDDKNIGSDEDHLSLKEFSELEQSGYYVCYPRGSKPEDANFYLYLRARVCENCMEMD
Description: Sample buffer and running buffer were HBS-EP+(10 mM HEPES, 150 mM NaCl, 3 mM EDTA, 0.05% surfactant P20) (GE Healthcare; BR-1006-69). The flow-through cell was set to 25° C. The sample block was set to 16° C. Both were pretreated with the running buffer. In each cycle, the antibody to be detected was first captured with a Protein A chip, and then a single concentration of CD3ε antigen protein (purchased from Sino Biological, Inc. (China), catalog number: 10977-H08H) was injected. The binding and dissociation processes of the antibody and the antigen protein were recorded, and finally a glycine solution (pH 1.5, GE Healthcare; BR-1003-54) was used to complete chip regeneration. The binding was measured by injecting different concentrations of recombinant human CD3ε-ECD His proteins in a solution for 240 s with a flow rate of 30 μL/min. The concentration started from 200 nM (see the detailed results for the actual concentration in the test) and was diluted at 1:1, making a total of 5 concentrations. The dissociation phase was monitored for up to 600 s and was triggered by switching from sample solution to running buffer. The surface was regenerated by washing with a 10 mM glycine solution (pH 1.5) for 30 s at a flow rate of 30 μL/min. Bulk refractive index difference was corrected by subtracting the response obtained from the goat anti-human Fc surface. Blank injection was also subtracted (=double reference). For calculation of apparent KD and other kinetic parameters, Langmuir 1:1 model was used.

[3] = molecular target: T1, human CD3 on the cell surface (Jurkat …); assay: cell-based or functional assay
[4] = molecular target: T3, cynomolgus monkey CD3 on the surface of expanded monkey T cells (cynomolgus monkey, UniProt Q95LI5 22-198; Q95LI8 22-171; Q95LI7 23-181); assay: FACS, expanded monkey T cells
T3 construct: whole, on cells; Endogenous CD3 within the TCR-CD3 complex on T cells expanded from cynomolgus monkey PBMC
T3 sequence (Q95LI5 22-198, chain 1 of 3): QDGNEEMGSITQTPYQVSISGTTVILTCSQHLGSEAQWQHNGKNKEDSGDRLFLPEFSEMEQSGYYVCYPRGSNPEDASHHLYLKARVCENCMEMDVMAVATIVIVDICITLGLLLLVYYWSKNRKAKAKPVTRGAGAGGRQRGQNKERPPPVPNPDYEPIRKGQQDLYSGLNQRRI
T3 sequence (Q95LI8 22-171, chain 2 of 3): as the sequence (P04234 22-171, chain 2 of 3) above, with I5V, N15K, I20V, S32T, D33N, I34N, T64A, S74N, V83L, H141R counted along it
T3 sequence (Q95LI7 23-181, chain 3 of 3): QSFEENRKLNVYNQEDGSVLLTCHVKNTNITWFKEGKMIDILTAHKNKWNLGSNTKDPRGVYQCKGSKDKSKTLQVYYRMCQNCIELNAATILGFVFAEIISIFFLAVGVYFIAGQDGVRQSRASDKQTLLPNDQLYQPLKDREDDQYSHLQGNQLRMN
Description: as §1
FACS detection and data analysis were performed on the cryopreserved monkey T cells of Example 2.4 according to the method in Example 5.1.

[5] = molecular target: T1, human CD3 on the cell surface (Jurkat …); assay: FACS, expanded human T cells
Description: as §1

[6] = molecular target: T1, human CD3 on the cell surface (Jurkat …); assay: FACS, expanded human T cells; remark: listed apart in the source
Description: as §1
The expanded human PBMC cells were collected, and FACS detection and data analysis were performed according to the method in Example 5.1.

human CD3ε/δ-His [7] = molecular target: T4, human CD3ε/δ-His (human, UniProt P07766 23-126; P04234 22-105); assay: SPR, antibody captured on Protein A chip
T4 construct: Bought recombinant heterodimer with His tag; also called human CD3ε/δ protein
T4 sequence (P07766 23-126, stated change not applied, form in doubt, chain 1 of 2): as the sequence (P07766 23-126) above
T4 sequence (P04234 22-105, stated change not applied, form in doubt, chain 2 of 2): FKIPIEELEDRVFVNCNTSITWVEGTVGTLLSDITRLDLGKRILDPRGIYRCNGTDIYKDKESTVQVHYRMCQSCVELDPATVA
Description: (§2) Running buffer was HBS-EP+(10 mM HEPES, 150 mM NaCl, 3 mM EDTA, 0.05% surfactant P20) (GE Healthcare; BR-1006-69). The flow-through cell was set to 25° C. The sample block was set to 16° C. Both were pretreated with the running buffer. In each cycle, an antibody to be detected was first captured with a Protein A chip, and then a single concentration of CD3ε antigen protein was injected. The binding and dissociation processes of the antibody and the antigen protein were recorded, and finally Glycine pH 1.5 (GE Healthcare; BR-1003-54) was used to complete chip regeneration. The binding was measured by injecting different concentrations of recombinant human CD3ε proteins in a solution for 240 s with a flow rate of 30 μL/min. The concentration started from 200 nM (see the detailed results for the actual concentration in the test) and was diluted at 1:1, making a total of 5 concentrations. The dissociation phase was monitored for up to 600 s and was triggered by switching from sample solution to running buffer. The surface was regenerated by washing with a 10 mM glycine solution (pH 1.5) for 30 s at a flow rate of 30 μL/min. Bulk refractive index difference was corrected by subtracting the response obtained from the goat anti-human Fc surface, and the blank injection was subtracted at the same time (=double reference). For calculation of apparent KD value and other kinetic parameters, Langmuir 1:1 model was used.

[8] = molecular target: T2, recombinant human CD3ε-ECD His protein; assay: SPR, antibody captured on Protein A chip
Description: as §2

human CD3ε/δ-His [9] = molecular target: T4, human CD3ε/δ-His; assay: ELISA, coated antigen
Description: (§3) To detect the binding activity of the humanized antibodies to CD3 protein, CD3 protein was diluted with PBS to the final concentration of […], then added to a 96-well ELISA plate at 50 μL/well, and the plate was sealed with a plastic film, and incubated overnight at 4° C. On the next day, the plate was washed 2 times with PBS, and a blocking solution [PBS+2% (v/v) BSA] was added for blocking at room temperature for 2 h. The blocking solution was poured off, and the antibody (initial concentration of 100 nM, and gradient dilution at 1:10) or a negative control antibody was added at 50 µl/well. After incubation at 37° C. for 2 h, the plate was washed 3 times with PBS. […] TMB substrate was added at 50 μl/well, and incubated at room temperature for 10 min, and then a stop solution (1.0 N HCl) was added at 50 μl/well. The OD450 nm values were read by an ELISA microplate reader (Multimode Plate Reader, EnSight, purchased from Perkin Elmer).

[10] = molecular target: T2, recombinant human CD3ε-ECD His protein; assay: ELISA, coated antigen
Description: as §3

[11] = molecular target: T3, cynomolgus monkey CD3 on the surface of …; assay: FACS, expanded monkey T cells; remark: listed apart in the source
Description: as §1
The expanded monkey T cells were collected, and FACS detection and data analysis were performed according to the method in Example 5.1.

monkey CD3ε protein = molecular target: T5, monkey CD3ε protein (monkey, UniProt Q95LI5 22-117, limits assumed); assay: ELISA, coated antigen
T5 sequence (looked up): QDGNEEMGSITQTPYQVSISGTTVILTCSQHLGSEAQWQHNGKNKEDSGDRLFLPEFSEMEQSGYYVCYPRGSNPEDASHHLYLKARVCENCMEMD
Description: as §3
(§4) To detect the binding activity of the humanized antibodies to monkey CD3 protein, CD3 protein was diluted with PBS to the final concentration of […], and then added to a 96-well ELISA plate at 50 μl/well.

monkey CD3ε/δ-His = molecular target: T6, monkey CD3ε/δ-His (monkey, UniProt Q95LI5 22-117; Q95LI8 22-105); assay: ELISA, coated antigen
T6 construct: Bought recombinant heterodimer with His tag
T6 sequence (Q95LI8 22-105, stated change not applied, form in doubt, chain 2 of 2, one chain of several): as the sequence (P04234 22-105, stated change not applied, form in doubt, chain 2 of 2) above, with I5V, N15K, I20V, S32T, D33N, I34N, T64A, S74N, V83L counted along it
Description: as §3, §4

B1: 5-7.13 human-murine chimeric antibody (antibody, human IgG1, kappa, V domains shown)
VH: QVQLQQPGTELVKPGASVKLSCKASGYTFTSYWVHWVKQRPGQGLEWIGNINPSDGVTNYNEKFKSRATLTVDKSSSTAYMQLSSLTSEDSAVYYCTRDAYGQYYFDDWGQGTTLTVSS
VL: DIVMSQSPSSLVVSAGEKVTMSCKSSQSLLNSRTRKNYLAWYQQKPGQSPKLLIYWASVRDSGVPDRFTGSGSGTDFTLTISNVQAEDLAVYYCIQSYYLRTFGGGTILEIKR
notes: Human IgG1 chimera
EC50 [1]: 0.06 nM
MFI_Max [1]: 32200 MFI
Kd [2]: 0.345 nM
koff [2]: 0.00027 s⁻¹
kon [2]: 785000 M⁻¹ s⁻¹
EC50 (nM), luciferase reporter, Jurkat-Lucia NFAT cells [3]: 0.7 nM
Maximum response value (RLU) [3]: 55400 RLU
EC50 [4]: 0.09 nM
MFI_Max [4]: 26500 MFI
EC50 [5]: 0.1 nM
MFI_Max [5]: 15900 MFI

B3: 5-40.21 human-murine chimeric antibody (antibody, human IgG1, kappa, V domains shown)
VH: QVQLQQPGSELVRPGASVKLSCKASGYTFTSYWMHWVKQRPGQGLEWIGNTYPGSGSTNYDEKFKSKATLTVDSSSSTAYMQLSSLTSEDSAVYYCTRDRYGVYYFDYWGQGTTLTVSS
VL: B1 VL with V12A, V59T, D61E, T69S, N83S, I95T, Y99N, I108K
notes: Human IgG1 chimera
EC50 [1]: 0.44 nM
MFI_Max [1]: 26700 MFI
Kd [2]: 0.553 nM
koff [2]: 0.000379 s⁻¹
kon [2]: 686000 M⁻¹ s⁻¹
EC50 (nM), luciferase reporter, Jurkat-Lucia NFAT cells [3]: 4.79 nM
Maximum response value (RLU) [3]: 46200 RLU
EC50 [4]: 1.09 nM
MFI_Max [4]: 24400 MFI
EC50 [5]: 0.99 nM
MFI_Max [5]: 11400 MFI

B4: 1-22.6-1-H2a-L2a humanized antibody (antibody, human IgG1, kappa, V domains shown)
VH: EVQLVQSGSELKKPGASVKVSCKTSGYTFTSYGMSWVRQAPGQGLEWMGWINTYSGVPTYAQDFKGRFVFSLDTSVSTAYLQISSLKAEDTAVYYCARLKNNPFVWGQGTTVTVSS
VL: DIVMTQSPDSLAVSLGERATINCRSSQLILHSSGNTYLEWYQQKPGQSPKLLIYKVSNRFSGVPDRFSGSGSGTDFTLTISSLQAEDVAVYYCFQGSHFPWTFGGGTKVEIKR
notes: also called 1-22.6-H2a-L2a
EC50 [6]: 11 nM
max_MFI [6]: 15900 MFI
Kd (human CD3ε/δ-His [7]): 113 nM
koff (human CD3ε/δ-His [7]): 0.0134 s⁻¹
kon (human CD3ε/δ-His [7]): 119000 M⁻¹ s⁻¹
Kd [8]: 3.64 nM
koff [8]: 0.000305 s⁻¹
kon [8]: 83600 M⁻¹ s⁻¹
EC50 (human CD3ε/δ-His [9]): 0.45 nM
max-OD450 (human CD3ε/δ-His [9]): 3.29 OD450
EC50 [10]: 0.1 nM
max-OD450 [10]: 1.49 OD450
EC50 [11]: 6.92 nM
max_MFI [11]: 12300 MFI
EC50 (monkey CD3ε protein): 0.000106 nM
max-OD450 (monkey CD3ε protein): 3.09 OD450
EC50 (monkey CD3ε/δ-His): 0.0124 nM
max-OD450 (monkey CD3ε/δ-His): 3.23 OD450

Second part, the binder after the results:

EC50 [1]: 0.15 nM
MFI_Max [1]: 31700 MFI
Kd [2]: 0.445 nM
koff [2]: 0.000259 s⁻¹
kon [2]: 581000 M⁻¹ s⁻¹
EC50 (nM), luciferase reporter, Jurkat-Lucia NFAT cells [3]: 1.84 nM
Maximum response value (RLU) [3]: 33600 RLU
EC50 [4]: 0.42 nM
MFI_Max [4]: 27100 MFI
EC50 [5]: 0.62 nM
MFI_Max [5]: 13300 MFI
B2: 6-44.5 human-murine chimeric antibody (antibody, human IgG1, kappa, V domains shown)
VH: EVQLQQSGPELVKPGASVKMSCKASGHTFTSHIMHWVKQKPGQGLEWIGYINPNNDRTEYSEKFKGKATLTSDKSSSTAYMELSSLTSEDSAVYYCAGEAYYSNSLYAMDYWGQGTSVTVSS
VL: B1 VL with V12A, L30F, K51E, V59T, D61E, D66V, N83S, I95K, I108K, I111V
notes: Human IgG1 chimera

EC50 [6]: 1.65 nM
max_MFI [6]: 18000 MFI
Kd (human CD3ε/δ-His [7]): 115 nM
koff (human CD3ε/δ-His [7]): 0.0184 s⁻¹
kon (human CD3ε/δ-His [7]): 161000 M⁻¹ s⁻¹
Kd [8]: 1.87 nM
koff [8]: 0.000485 s⁻¹
kon [8]: 260000 M⁻¹ s⁻¹
EC50 (human CD3ε/δ-His [9]): 0.28 nM
max-OD450 (human CD3ε/δ-His [9]): 3.15 OD450
EC50 [10]: 0.13 nM
max-OD450 [10]: 1.53 OD450
EC50 [11]: 0.73 nM
max_MFI [11]: 17800 MFI
EC50 (monkey CD3ε protein): 0.000467 nM
max-OD450 (monkey CD3ε protein): 2.84 OD450
EC50 (monkey CD3ε/δ-His): 0.00456 nM
max-OD450 (monkey CD3ε/δ-His): 3.16 OD450
B5: 5-40.21-H3-L1 humanized antibody (antibody, human IgG1, kappa, V domains shown)
VH: EVQLVQSGAEVKKPGASVKVSCKASGYTFTSYWMHWVRQAPGQGLEWMGNTYPGSGSTNYDEKFKSRVTITVDSSASTAYMELSSLRSEDTAVYYCTRDRYGVYYFDYWGQGTTVTVSS
VL: DIVMTQSPDSLAVSLGERATINCKSSQSLLNSRTRKNYLAWYQQKPGQSPKLLIYWASTRESGVPDRFSGSGSGTDFTLTISSLQAEDVAVYYCTQSYNLRTFGGGTKVEIKR
